Measurements reported in paper PMC12808100 (Nature Communications, 2025).
*: point of attachment. Biotin = O=C1N[C@H]2[C@H](CS[C@H]2CCCCC(=O)*)N1; TTDS = Trioxatridecan-succinamic acid linker

T1: EPS15 (human (endogenous in Jurkat), UniProt P42566 1-896)
T1 construct: EPS15, EH protein with three EH domains, endogenous in Jurkat E6.1 extract, detected by western blot with an EPS15 antibody; also called endogenous EPS15; EH protein with three EH domains; source: endogenous, total Jurkat extract
T1 sequence (looked up): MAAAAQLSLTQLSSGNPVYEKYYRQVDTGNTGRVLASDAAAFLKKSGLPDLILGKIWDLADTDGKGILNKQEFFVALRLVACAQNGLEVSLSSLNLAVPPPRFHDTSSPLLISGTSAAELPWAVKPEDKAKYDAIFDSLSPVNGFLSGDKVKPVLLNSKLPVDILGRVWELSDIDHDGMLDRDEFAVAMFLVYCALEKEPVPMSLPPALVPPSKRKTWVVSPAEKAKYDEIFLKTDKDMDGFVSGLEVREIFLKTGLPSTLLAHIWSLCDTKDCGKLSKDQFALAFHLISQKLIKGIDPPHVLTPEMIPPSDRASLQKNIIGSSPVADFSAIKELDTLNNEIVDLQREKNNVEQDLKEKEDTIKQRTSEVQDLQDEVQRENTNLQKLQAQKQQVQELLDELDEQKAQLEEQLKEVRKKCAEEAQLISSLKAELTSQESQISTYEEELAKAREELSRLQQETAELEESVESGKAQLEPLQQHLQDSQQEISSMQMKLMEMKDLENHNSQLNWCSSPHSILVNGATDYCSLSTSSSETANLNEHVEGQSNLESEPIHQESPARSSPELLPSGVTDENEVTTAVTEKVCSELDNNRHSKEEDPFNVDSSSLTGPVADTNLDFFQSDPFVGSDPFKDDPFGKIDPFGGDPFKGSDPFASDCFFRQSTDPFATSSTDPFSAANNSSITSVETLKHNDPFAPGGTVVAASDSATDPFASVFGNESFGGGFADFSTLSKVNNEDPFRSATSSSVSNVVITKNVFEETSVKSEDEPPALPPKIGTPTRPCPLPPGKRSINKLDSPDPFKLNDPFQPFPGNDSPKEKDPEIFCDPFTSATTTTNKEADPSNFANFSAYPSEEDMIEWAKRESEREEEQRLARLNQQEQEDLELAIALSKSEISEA


Tests used:
[1] = biological target: T1, EPS15; experiment: native holdup (nHU) titration with western blot; biotinylated peptide bait on streptavidin resin, bait-saturated and control (biotin) resin mixed at various proportions; total Jurkat extract as analyte; 4 °C, 2 h; endogenous POLE and EPS15 left in the supernatant quantified by western blot; apparent dissociation constants; details: one partner purified
[2] = biological target: T2, His6-AviTag-MBP-TEV-POLE2 (human, UniProt P56282 1-527, biotin on the AviTag (BirA co-expressed, biotin in the medium)); experiment: native holdup (nHU) titration with dot blot; purified His6-avi-MBP-tagged POLE2 as bait on resin; extracts of HEK293T cells transfected with HA-tagged full length proteins; 4 °C, 2 h; anti-HA dot blot; apparent; details: one partner purified
T2 construct: POLE2, residues 1-527; a TEV site lies between MBP and POLE2; also called His6-avi-MBP-tagged POLE2; avi-His6-MBP-POLE2; source: E. coli BL21(DE3), co-expressed with BirA, purified (HisTrap, MBPtrap, Q HP); not shown: His6, N-terminal, kept; AviTag, N-terminal, kept; MBP, N-terminal, kept
T2 sequence (P56282 whole entry, the tested form may be a part): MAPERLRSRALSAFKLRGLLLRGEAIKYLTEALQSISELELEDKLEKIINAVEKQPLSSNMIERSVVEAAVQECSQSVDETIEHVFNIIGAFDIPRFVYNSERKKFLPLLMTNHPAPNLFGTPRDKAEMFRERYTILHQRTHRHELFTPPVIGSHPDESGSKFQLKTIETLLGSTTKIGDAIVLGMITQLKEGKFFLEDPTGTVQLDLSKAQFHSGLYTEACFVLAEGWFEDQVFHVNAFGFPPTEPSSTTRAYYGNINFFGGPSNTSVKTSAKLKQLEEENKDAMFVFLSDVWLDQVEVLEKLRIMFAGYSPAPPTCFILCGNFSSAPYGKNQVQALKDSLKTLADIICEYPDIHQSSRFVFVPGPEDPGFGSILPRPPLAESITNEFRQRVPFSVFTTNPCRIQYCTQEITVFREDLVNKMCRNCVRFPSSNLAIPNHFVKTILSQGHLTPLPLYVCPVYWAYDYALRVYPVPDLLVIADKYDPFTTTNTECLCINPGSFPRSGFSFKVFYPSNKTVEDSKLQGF

| Binder | Kd [1] [µM] | fold weaker affinity than the wild type [2] [fold] |
| --- | --- | --- |
| RSSPNPFITGLTRTNPFSDRTAAPGNPFRAKS (HELM PEPTIDE1{[O=C1N[C@H]2[C@H](CS[C@H]2CCCCC(=O)[*:2])N1].[O=C(CCCCCN[*:1])[*:2]].R.S.S.P.N.P.F.I.T.G.L.T.R.T.N.P.F.S.D.R.T.A.A.P.G.N.P.F.R.A.K.S.[am]}$$$$V2.0; SMILES CC[C@H](C)[C@H](NC(=O)[C@H](Cc1ccccc1)NC(=O)[C@@H]1CCCN1C(=O)[C@H](CC(N)=O)NC(=O)[C@@H]1CCCN1C(=O)[C@H](CO)NC(=O)[C@H](CO)NC(=O)[C@H](CCCNC(=N)N)NC(=O)CCCCCNC(=O)CCCC[C@@H]1SC[C@@H]2NC(=O)N[C@@H]21)C(=O)N[C@H](C(=O)NCC(=O)N[C@@H](CC(C)C)C(=O)N[C@H](C(=O)N[C@@H](CCCNC(=N)N)C(=O)N[C@H](C(=O)N[C@@H](CC(N)=O)C(=O)N1CCC[C@H]1C(=O)N[C@@H](Cc1ccccc1)C(=O)N[C@@H](CO)C(=O)N[C@@H](CC(=O)O)C(=O)N[C@@H](CCCNC(=N)N)C(=O)N[C@H](C(=O)N[C@@H](C)C(=O)N[C@@H](C)C(=O)N1CCC[C@H]1C(=O)NCC(=O)N[C@@H](CC(N)=O)C(=O)N1CCC[C@H]1C(=O)N[C@@H](Cc1ccccc1)C(=O)N[C@@H](CCCNC(=N)N)C(=O)N[C@@H](C)C(=O)N[C@@H](CCCCN)C(=O)N[C@@H](CO)C(N)=O)[C@@H](C)O)[C@@H](C)O)[C@@H](C)O)[C@@H](C)O, SYNJ1, residues 1390-1421, contains three NPF motifs; also called SYNJ1_1390-1421; triple motif of SYNJ1; source: synthetic peptide; bought: Synpeptide) [NPF motif peptide of SYNJ1 (residues 1390-1421)] | 1 |  |
| GPAATRTNPFSDRDNRPR (HELM PEPTIDE1{[O=C1N[C@H]2[C@H](CS[C@H]2CCCCC(=O)[*:2])N1].[O=C(CCCCCN[*:1])[*:2]].G.P.A.A.T.R.T.N.P.F.S.D.R.D.N.R.P.R.[am]}$$$$V2.0; SMILES C[C@H](NC(=O)[C@H](C)NC(=O)[C@@H]1CCCN1C(=O)CNC(=O)CCCCCNC(=O)CCCC[C@@H]1SC[C@@H]2NC(=O)N[C@@H]21)C(=O)N[C@H](C(=O)N[C@@H](CCCNC(=N)N)C(=O)N[C@H](C(=O)N[C@@H](CC(N)=O)C(=O)N1CCC[C@H]1C(=O)N[C@@H](Cc1ccccc1)C(=O)N[C@@H](CO)C(=O)N[C@@H](CC(=O)O)C(=O)N[C@@H](CCCNC(=N)N)C(=O)N[C@@H](CC(=O)O)C(=O)N[C@@H](CC(N)=O)C(=O)N[C@@H](CCCNC(=N)N)C(=O)N1CCC[C@H]1C(=O)N[C@@H](CCCNC(=N)N)C(N)=O)[C@@H](C)O)[C@@H](C)O) [DONSON-SYNJ1 chimera peptide, both flanks replaced] | > 200 |  |
| {Biotin-TTDS}-GPAAARRNPFARLDNRPR-NH2 (Protein downstream neighbor of Son (DONSON), residues 71-88; also called DONSON_71-88; DONSON_718-88 (as printed in the sheet); source: synthetic peptide (ABI 443 A synthesizer, Fmoc strategy)) [NPF motif peptide of DONSON (residues 71-88)] | > 60 |  |
| HA-WDHD1, full length, NPF motif mutated to KAF (natural protein, human, UniProt O75717 1-1129, looked up, WDHD1, residues 1-1129; also called WDHD1 mutant; source: HEK293T, transfected, in cell extract; not shown: HA, N-terminal, kept) MPATRKPMRYGHTEGHTEVCFDDSGSFIVTCGSDGDVRIWEDLDDDDPKFINVGEKAYSCALKSGKLVTAVSNNTIQVHTFPEGVPDGILTRFTTNANHVVFNGDGTKIAAGSSDFLVKIVDVMDSSQQKTFRGHDAPVLSLSFDPKDIFLASASCDGSVRVWQISDQTCAISWPLLQKCNDVINAKSICRLAWQPKSGKLLAIPVEKSVKLYRRESWSHQFDLSDNFISQTLNIVTWSPCGQYLAAGSINGLIIVWNVETKDCMERVKHEKGYAICGLAWHPTCGRISYTDAEGNLGLLENVCDPSGKTSSSKVSSRVEKDYNDLFDGDDMSNAGDFLNDNAVEIPSFSKGIINDDEDDEDLMMASGRPRQRSHILEDDENSVDISMLKTGSSLLKEEEEDGQEGSIHNLPLVTSQRPFYDGPMPTPRQKPFQSGSTPLHLTHRFMVWNSIGIIRCYNDEQDNAIDVEFHDTSIHHATHLSNTLNYTIADLSHEAILLACESTDELASKLHCLHFSSWDSSKEWIIDLPQNEDIEAICLGQGWAAAATSALLLRLFTIGGVQKEVFSLAGPVVSMAGHGEQLFIVYHRGTGFDGDQCLGVQLLELGKKKKQILHGDPLPLTRKSYLAWIGFSAEGTPCYVDSEGIVRMLNRGLGNTWTPICNTREHCKGKSDHYWVVGIHENPQQLRCIPCKGSRFPPTLPRPAVAILSFKLPYCQIATEKGQMEEQFWRSVIFHNHLDYLAKNGYEYEESTKNQATKEQQELLMKMLALSCKLEREFRCVELADLMTQNAVNLAIKYASRSRKLILAQKLSELAVEKAAELTATQVEEEEEEEDFRKKLNAGYSNTATEWSQPRFRNQVEEDAEDSGEADDEEKPEIHKPGQNSFSKSTNSSDVSAKSGAVTFSSQGRVKAFKVSASSKEPAMSMNSARSTNILDNMGKSSKKSTALSRTTNNEKSPIIKPLIPKPKPKQASAASYFQKRNSQTNKTEEVKEENLKNVLSETPAICPPQNTENQRPKTGFQMWLEENRSNILSDNPDFSDEADIIKEGMIRFRVLSTEERKVWANKAKGETASEGTEAKKRKRVVDESDETENQEEKAKENLNLSKKQKPLDFSTNQKLSAFAFKQE |  | 1000 |
| GPAAARRNPFSDRDNRPR (HELM PEPTIDE1{[O=C1N[C@H]2[C@H](CS[C@H]2CCCCC(=O)[*:2])N1].[O=C(CCCCCN[*:1])[*:2]].G.P.A.A.A.R.R.N.P.F.S.D.R.D.N.R.P.R.[am]}$$$$V2.0; SMILES C[C@H](NC(=O)[C@H](C)NC(=O)[C@@H]1CCCN1C(=O)CNC(=O)CCCCCNC(=O)CCCC[C@@H]1SC[C@@H]2NC(=O)N[C@@H]21)C(=O)N[C@@H](C)C(=O)N[C@@H](CCCNC(=N)N)C(=O)N[C@@H](CCCNC(=N)N)C(=O)N[C@@H](CC(N)=O)C(=O)N1CCC[C@H]1C(=O)N[C@@H](Cc1ccccc1)C(=O)N[C@@H](CO)C(=O)N[C@@H](CC(=O)O)C(=O)N[C@@H](CCCNC(=N)N)C(=O)N[C@@H](CC(=O)O)C(=O)N[C@@H](CC(N)=O)C(=O)N[C@@H](CCCNC(=N)N)C(=O)N1CCC[C@H]1C(=O)N[C@@H](CCCNC(=N)N)C(N)=O) [DONSON-SYNJ1 chimera peptide, C-terminal flank replaced] | > 20 |  |
| GPAATRTNPFARLDNRPR (HELM PEPTIDE1{[O=C1N[C@H]2[C@H](CS[C@H]2CCCCC(=O)[*:2])N1].[O=C(CCCCCN[*:1])[*:2]].G.P.A.A.T.R.T.N.P.F.A.R.L.D.N.R.P.R.[am]}$$$$V2.0; SMILES CC(C)C[C@H](NC(=O)[C@H](CCCNC(=N)N)NC(=O)[C@H](C)NC(=O)[C@H](Cc1ccccc1)NC(=O)[C@@H]1CCCN1C(=O)[C@H](CC(N)=O)NC(=O)[C@@H](NC(=O)[C@H](CCCNC(=N)N)NC(=O)[C@@H](NC(=O)[C@H](C)NC(=O)[C@H](C)NC(=O)[C@@H]1CCCN1C(=O)CNC(=O)CCCCCNC(=O)CCCC[C@@H]1SC[C@@H]2NC(=O)N[C@@H]21)[C@@H](C)O)[C@@H](C)O)C(=O)N[C@@H](CC(=O)O)C(=O)N[C@@H](CC(N)=O)C(=O)N[C@@H](CCCNC(=N)N)C(=O)N1CCC[C@H]1C(=O)N[C@@H](CCCNC(=N)N)C(N)=O) [DONSON-SYNJ1 chimera peptide, N-terminal flank replaced] | > 30 |  |
